Test results from publication PMC13503762 (Nature Communications, 2026).

Molecular target: SARS-CoV-2 M protein (purified, in LMNG/CHS detergent) (SARS-CoV-2, UniProt P0DTC5)
Test: cryo-EM structure
Details: both partners purified

B1: short conformation Fab (scFab) (Fab, V domains shown)
VH: EVQLQQSGPELVKPGASMKISCKTSGYSFTGYTMNWVKQSHGKNLEWIGLINPYNGDTSYNQKFKGKATLTVDKSSSTAYMELLSLTSEDSAVYYCEVINTYWGQGTLVTVSA
VL: DIVMTQSPASLAVSLGQRATISCKASQSIDYDGDNYMNWYQQKPGQPPKLLIYTTSNLESGIPARFSGSGSGTDFTLNIHPVEEGDAATYYCQQNNEDPYTFGGGTKLEIK
notes: also called short conformation-selective Fab; Fab targeting M_(short)
binding result: binds
